Measurements reported in patent publication US20160031952A1.

Assays:
Assay in all cases: cell-based or functional assay
[1] = target: β-amyloid peptide 1-42 (Aβ), pre-aggregated for 6 hrs, toxic oligomer-containing solution (UniProt P05067)
[2] = target: transthyretin (TTR), pre-incubated at pH 4.5 for 24 hrs, toxic oligomer-containing solution (UniProt P02766)
[3] = target: β-amyloid peptide 1-42 (Aβ), fresh (0 h), monomeric (UniProt P05067)
β-amyloid peptide 1-42 (Aβ), fresh (0 h), monomeric, sequence (P05067 672-713 limits assumed): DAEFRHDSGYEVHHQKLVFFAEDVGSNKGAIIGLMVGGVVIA

β-amyloid peptide 1-42 (Aβ), pre-aggregated for 6 hrs, toxic oligomer-containing solution, sequence (P05067 672-713 limits assumed): as above

inhibition of Aβ fibrillization (ThT fluorescence; co-incubated 10:1) [3]	Substance	inhibition of Aβ fibril formation (ThT fluorescence, 22 hours, 37° C.; peptide co-incubated 10:1 from the start) [1]	inhibition of aggregation after addition to pre-aggregated (6 hrs), toxic Aβ (ThT) [1]	inhibition of the remaining TTR aggregation after addition to 24-hour pre-incubated, toxic TTR (Congo red) [2]	percentage inhibition of TTR aggregation (Congo red binding, 48 h, 37° C., pH 4.5; peptide co-incubated 20:1 from the start) [2]
–	α1 (ldas90, peptide #1 of FIG. 5), Ac-RGEmNlSwMNEYSGWtMnLkMGR-NH2 (designed binder)	87%	97%	81%	72%
62%	β (β-sheet control design: Trpzip 3 peptide with Trp to Leu substitutions) (designed binder)	–	–	–	–
